One substance from PMC7113277 can be followed below.

The assay concerns the target recombinant EBV LMP2A N-terminal cytoplasmic domain (LMP2A-NCD), His6-tagged (Epstein-Barr virus) (UniProt P13285). In words: SPR; BIAcore T200; LMP2A-NCD immobilised on Sensor Chip CM5; affibodies flowed at 2.5-20 μM; global fit, one-to-one Langmuir binding model. A general note: Surface plasmon resonance follows binding to a sensor surface in real time, without labels.
UniProt P13285, sequence (P13285 1-119): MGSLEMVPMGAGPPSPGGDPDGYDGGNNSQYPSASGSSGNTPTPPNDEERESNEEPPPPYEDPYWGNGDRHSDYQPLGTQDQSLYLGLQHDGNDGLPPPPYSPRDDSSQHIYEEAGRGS

Turning to “ZWT affibody (wild SPA-Z scaffold) (designed binder)”, the koff (as a rule, a measure of how fast the partners let go of each other) was found to be 5.96e-05 s⁻¹.
